The values that follow come from paper PMC6356862, “A polyextremophilic alcohol dehydrogenase from the Atlantis II Deep Red Sea brine pool” (FEBS Open Bio, 2018).

The target of series [1] is Alcohol dehydrogenase/A1a (ADH/A1a) from an uncultured MSBL1 archaeon of the Atlantis II Deep Red Sea brine pool (uncultured MSBL1 (Mediterranean Sea Brine Lake 1) archaeon). Description: native gel or EMSA; Coomassie-stained native PAGE of purified ADH/A1a (Fig. S4); conditions not given.
Substrate in series [2]: CCO
Description: purified protein. To be noted: standard oxidation conditions: 3 M KCl, 50 mM glycine/NaOH pH 10.0, 60 °C, 10 mM NAD(P)+, 0.4 mM zinc sulfate, cofactor (NAD+ or NADP+) not specified.

Substrate in series [3]: CC(C)=CCC/C(C)=C/CO
Description: purified protein. It counts as biochemical, candidate division MSBL1 archaeon SCGC-AAA261F19. To be noted: standard oxidation conditions: 3 M KCl, 50 mM glycine/NaOH pH 10.0, 60 °C, 10 mM NAD(P)+, 0.4 mM zinc sulfate, cofactor (NAD+ or NADP+) not specified.

Substrate in series [4]: OC/C=C/c1ccccc1
Description: purified protein. It counts as biochemical, candidate division MSBL1 archaeon SCGC-AAA261F19. To be noted: standard oxidation conditions: 3 M KCl, 50 mM glycine/NaOH pH 10.0, 60 °C, 10 mM NAD(P)+, 0.4 mM zinc sulfate, cofactor (NAD+ or NADP+) not specified.

As for “Alcohol dehydrogenase/A1a (ADH/A1a) from an uncultured MSBL1 archaeon of the Atlantis II Deep Red Sea brine pool (enzyme)”, in series [1], the stoichiometry N is 4.

B1: ADH/A1a (candidate division MSBL1 archaeon SCGC-AAA261F19) (protein)
chain: MKAMQLKEPKPVEQAPLEMVELKEPRPGPKEVKIDVQACGVCHTDLHTVEGELSLPKLPIVPGHEVVGVVEESGDEAEHFEVGDRVGVTWLYSSCGECKFCRRGQENLCEDPMFTGLHADGGYEESMVAKEDFVYPIPKNISDEDAAPLLCAGVIGYRSLRLSEVKPGQRLGLFGFGASAHIVIQLATDMGCEVYVFTRSEEHRRLARELGSAWEGSAKDDPPHRIDSGITFAPVGWIVKEALRDLEKGGTLAINAIHMTPIPELDYDLIYHEKKLRSVANVTREDAEGFLKIAGDIPVQTEVETFPLEEANRALRLLKDSKINGAGVLKVS
notes: N-terminal 20-residue nonsense region of annotated adh/a1 deleted; N-terminal His6-tag; codon-optimized, expressed in Haloferax volcanii H1895 (pTA963); zinc added
As to B1, in series [2], the Km is 94430 ± 8400 µM, the Vmax is 0.142 µmol/min/mg, the kcat came out at 0.089 s⁻¹ and the kcat/Km amounted to 0.94 M⁻¹ s⁻¹. For the same molecule, in series [3], the Km stood at 270 ± 40 µM, the Vmax amounted to 0.131 µmol/min/mg, the turnover number (kcat) was 0.082 ± 0.003 s⁻¹ and the kcat/Km is 290 ± 18 M⁻¹ s⁻¹. Also, in series [4], the Km was found to be 470 ± 90 µM, the Vmax amounted to 0.237 µmol/min/mg, the kcat amounted to 0.144 ± 0.009 s⁻¹ and the kcat/Km was found to be 310 ± 10 M⁻¹ s⁻¹.
